Source: US20120045459

B1: GST-tagged recombinant full-length MTMR6 (NM-004685.2) (protein)
chain: MEHIRTTKVEQVKLLDRFSTSNKSLTGTLYLTATHLLFIDSHQKETWILHHHIASVEKLALTTSGCPLVIQCKNFRTVHFIVPRERDCHDIYNSLLQLSKQAKYEDLYAFSYNPKQNDSERLQGWQLIDLAEEYKRMGVPNSHWQLSDANRDYKICETYPRELYVPRIASKPIIVGSSKFRSKGRFPVLSYYHQDKEAAICRCSQPLSGFSARCLEDEHLLQAISKANPVNRYMYVMDTRPKLNAMANRAAGKGYENEDNYSNIRFQFVGIENIHVMRSSLQKLLEVNGTKGLSVNDFYSGLESSGWLRHIKAVMDAAIFLAKAITVENASVLVHCSDGWDRTSQVCSLGSLLLDSYYRTIKGFMVLIEKDWISFGHKFSERCGQLDGDPKEVSPVFTQFLECVWHLTEQFPQAFEFSEAFLLQIHEHIHSCQFGNFLGNCQKEREELKLKEKTYSLWPFLLEDQKKYLNPLYSSESHRFTVLEPNTVSFNFKFWRNMYHQFDRTLHPRQSVFNIIMNMNEQNKQLEKDIKDLESKIKQRKNKQTDGILTKELLHSVHPESPNLKTSLCFKEQTLLPVNDALRTIEGSSPADNRYSEYAEEFSKSEPAVVSLEYGVARMTC
B2: PTP1B (from Upstate) (protein)
chain: MEMEKEFEQIDKSGSWAAIYQDIRHEASDFPCRVAKLPKNKNRNRYRDVSPFDHSRIKLHQEDNDYINASLIKMEEAQRSYILTQGPLPNTCGHFWEMVWEQKSRGVVMLNRVMEKGSLKCAQYWPQKEEKEMIFEDTNLKLTLISEDIKSYYTVRQLELENLTTQETREILHFHYTTWPDFGVPESPASFLNFLFKVRESGSLSPEHGPVVVHCSAGIGRSGTFCLADTCLLLMDKRKDPSSVDIKKVLLEMRKFRMGLIQTADQLRFSYLAVIEGAKFIMGDSSVQDQWKELSHEDLEPPPEHIPPPPRPPKRILEPHN
B3: GST-tagged recombinant PTPsigma catalytic fragment (PTPRS-CTF; BC104812 aa1156-1501) (protein)
chain: IVMVPLRKSRGGQFLTPLGSPEDMDLEELIQDISRLQRRSLRHSRQLEVPRPYIAARFSVLPPTFHPGDQKQYGGFDNRGLEPGHRYVLFVLAVLQKSEPTFAASPFSDPFQLDNPDPQPIVDGEEGLIWVIGPVLAVVFIICIVIAILLYKNKPDSKRKDSEPRTKCLLNNADLAPHHPKDPVEMRRINFQTPDSGLRSPLREPGFHFESMLSHPPIPIADMAEHTERLKANDSLKLSQEYESIDPGQQFTWEHSNLEVNKPKNRYANVIAYDHSRVILQPIEGIMGSDYINANYVDGYRCQNAYIATQGPLPETFGDFWRMVWEQRSATIVMMTRLEEKSRIKC

What follows are proteins tested against phosphotyrosine peptide (Upstate).

Protein | in vitro phosphatase activity (malachite green, released phosphate)
B1 | only negligible activity against p-Tyr
B2 | PTP1B, a bona fide PTPase, dephosphorylated p-Tyr exclusively
B3 | exhibiting significant activity against a tyrosine-phosphorylated peptide (p-Tyr)
